Measured values published in patent publication US20250262210A1 (TRUSTEES OF COLUMBIA UNIVERSITY IN THE CITY OF NEW YORK, published 2025).
Numbering of substitutions follows the chain as printed. Names may count otherwise.

Legend:
AXL [1] = target: T1, AXL (human, UniProt P30530 26-894, limits assumed); assay: IP/MS, U87 cells (summary of Example 1)
Procedure: (§1) Lysates were immunoprecipitated with FLAG affinity matrix and eluted with FLAG peptide. […] Protein gel slices were excised and in-gel digestion performed as previously described (83), with minor modifications. Gel slices were washed with 1:1 A cetonitrile and 100 mM ammonium bicarbonate for 30 min then dehydrated with 100% acetonitrile for 10 min until shrunk. The excess acetonitrile was then removed and the slices dried in speed-vacuum at room temperature for 10 min. Gel slices were reduced with 5 mM DTT for 30 min at 56° C. in an air thermostat, cooled down to room temperature, and alkylated with 11 mM IAA for 30 min with no light. Gel slices were then washed with 100 mM of ammonium bicarbonate and 100% acetonitrile for 10 min each. Excess acetonitrile was removed and dried in a speed-vacuum for 10 min at room temperature and the gel slices were re-hydrated in a solution of 25 ng/μl trypsin in 50 mM ammonium bicarbonate for 30 min on ice and digested overnight at 37° C. in an air thermostat. Digested peptides were collected and further extracted from gel slices in extraction buffer (1:2 ratio by volume of 5% formic acid:acetonitrile) at high speed, shaking in an air thermostat. […] The following modifications were used for protein identification and quantification: oxidation of methionine (M), acetylation of the protein N-terminus, and deamination for asparagine or glutamine (NQ).

EGFR [2] = target: T2, EGFR (human, UniProt P00533 25-1210); assay: IP/MS, U87 cells (summary of Example 1)
T2 construct: also called epidermal growth factor receptor
Procedure: as §1

ARHGEF40 = ARHGEF40 (human, UniProt Q8TER5 1-1519, limits assumed); assay: IP/MS, LZTR1 wild type-FLAG, U87
How it was run: (§2)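 Read-out: spectral counts from LC-MS/MS (Orbitrap Fusion) after MaxQuant identification. Variable modifications were Met oxidation, protein N-terminal acetylation and N/Q deamidation.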

UBE4B = target: T3, UBE4B (human, UniProt O95155 1-1302, limits assumed); assay: IP/MS, LZTR1 wild type-FLAG, U87
T3 sequence (looked up): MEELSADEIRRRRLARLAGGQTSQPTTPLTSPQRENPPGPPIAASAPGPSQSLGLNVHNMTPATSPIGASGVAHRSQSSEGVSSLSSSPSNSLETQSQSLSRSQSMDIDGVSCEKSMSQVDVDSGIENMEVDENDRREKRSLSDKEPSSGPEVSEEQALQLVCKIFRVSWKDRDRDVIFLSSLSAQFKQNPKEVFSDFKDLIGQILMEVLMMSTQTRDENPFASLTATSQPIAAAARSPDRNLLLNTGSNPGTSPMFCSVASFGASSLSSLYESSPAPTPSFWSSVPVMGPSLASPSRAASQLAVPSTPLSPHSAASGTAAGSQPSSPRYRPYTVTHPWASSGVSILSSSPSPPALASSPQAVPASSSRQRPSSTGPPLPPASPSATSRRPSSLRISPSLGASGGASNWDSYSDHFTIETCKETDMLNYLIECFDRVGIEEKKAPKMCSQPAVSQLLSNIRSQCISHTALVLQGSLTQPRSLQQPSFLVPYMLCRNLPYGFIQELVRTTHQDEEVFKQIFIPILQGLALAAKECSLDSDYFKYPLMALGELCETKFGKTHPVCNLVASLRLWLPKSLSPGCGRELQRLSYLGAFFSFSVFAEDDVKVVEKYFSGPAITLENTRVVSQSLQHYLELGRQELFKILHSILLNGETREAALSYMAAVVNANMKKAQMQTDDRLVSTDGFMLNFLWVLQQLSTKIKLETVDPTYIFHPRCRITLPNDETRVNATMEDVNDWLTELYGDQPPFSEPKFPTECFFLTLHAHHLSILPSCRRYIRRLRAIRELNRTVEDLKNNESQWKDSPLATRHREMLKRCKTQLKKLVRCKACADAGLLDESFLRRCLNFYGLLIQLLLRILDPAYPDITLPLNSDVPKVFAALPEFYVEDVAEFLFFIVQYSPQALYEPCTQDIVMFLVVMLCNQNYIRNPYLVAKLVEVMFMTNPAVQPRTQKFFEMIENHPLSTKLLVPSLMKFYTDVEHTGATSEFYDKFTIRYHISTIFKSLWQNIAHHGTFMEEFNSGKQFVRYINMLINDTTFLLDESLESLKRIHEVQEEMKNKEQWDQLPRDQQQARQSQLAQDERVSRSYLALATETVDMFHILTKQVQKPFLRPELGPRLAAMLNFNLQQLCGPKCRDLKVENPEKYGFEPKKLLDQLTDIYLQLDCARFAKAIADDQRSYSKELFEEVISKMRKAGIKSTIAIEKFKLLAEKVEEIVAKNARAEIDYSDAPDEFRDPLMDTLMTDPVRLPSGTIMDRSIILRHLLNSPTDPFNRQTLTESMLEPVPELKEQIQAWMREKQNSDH
How it was run: as §2

AXL [3] = target: T1, AXL; assay: IP/MS, LZTR1 R810W-FLAG, U87; spectral counts >2-fold against wild type
Procedure: as §1, with “(NQ). […]” for “(NQ).”

EGFR [4] = target: T2, EGFR; assay: as above
Procedure: as §1, with “(NQ). […]” for “(NQ).”

Measured: binding result

Sequence of ARHGEF40 (Q8TER5 whole entry, the tested form may be a part): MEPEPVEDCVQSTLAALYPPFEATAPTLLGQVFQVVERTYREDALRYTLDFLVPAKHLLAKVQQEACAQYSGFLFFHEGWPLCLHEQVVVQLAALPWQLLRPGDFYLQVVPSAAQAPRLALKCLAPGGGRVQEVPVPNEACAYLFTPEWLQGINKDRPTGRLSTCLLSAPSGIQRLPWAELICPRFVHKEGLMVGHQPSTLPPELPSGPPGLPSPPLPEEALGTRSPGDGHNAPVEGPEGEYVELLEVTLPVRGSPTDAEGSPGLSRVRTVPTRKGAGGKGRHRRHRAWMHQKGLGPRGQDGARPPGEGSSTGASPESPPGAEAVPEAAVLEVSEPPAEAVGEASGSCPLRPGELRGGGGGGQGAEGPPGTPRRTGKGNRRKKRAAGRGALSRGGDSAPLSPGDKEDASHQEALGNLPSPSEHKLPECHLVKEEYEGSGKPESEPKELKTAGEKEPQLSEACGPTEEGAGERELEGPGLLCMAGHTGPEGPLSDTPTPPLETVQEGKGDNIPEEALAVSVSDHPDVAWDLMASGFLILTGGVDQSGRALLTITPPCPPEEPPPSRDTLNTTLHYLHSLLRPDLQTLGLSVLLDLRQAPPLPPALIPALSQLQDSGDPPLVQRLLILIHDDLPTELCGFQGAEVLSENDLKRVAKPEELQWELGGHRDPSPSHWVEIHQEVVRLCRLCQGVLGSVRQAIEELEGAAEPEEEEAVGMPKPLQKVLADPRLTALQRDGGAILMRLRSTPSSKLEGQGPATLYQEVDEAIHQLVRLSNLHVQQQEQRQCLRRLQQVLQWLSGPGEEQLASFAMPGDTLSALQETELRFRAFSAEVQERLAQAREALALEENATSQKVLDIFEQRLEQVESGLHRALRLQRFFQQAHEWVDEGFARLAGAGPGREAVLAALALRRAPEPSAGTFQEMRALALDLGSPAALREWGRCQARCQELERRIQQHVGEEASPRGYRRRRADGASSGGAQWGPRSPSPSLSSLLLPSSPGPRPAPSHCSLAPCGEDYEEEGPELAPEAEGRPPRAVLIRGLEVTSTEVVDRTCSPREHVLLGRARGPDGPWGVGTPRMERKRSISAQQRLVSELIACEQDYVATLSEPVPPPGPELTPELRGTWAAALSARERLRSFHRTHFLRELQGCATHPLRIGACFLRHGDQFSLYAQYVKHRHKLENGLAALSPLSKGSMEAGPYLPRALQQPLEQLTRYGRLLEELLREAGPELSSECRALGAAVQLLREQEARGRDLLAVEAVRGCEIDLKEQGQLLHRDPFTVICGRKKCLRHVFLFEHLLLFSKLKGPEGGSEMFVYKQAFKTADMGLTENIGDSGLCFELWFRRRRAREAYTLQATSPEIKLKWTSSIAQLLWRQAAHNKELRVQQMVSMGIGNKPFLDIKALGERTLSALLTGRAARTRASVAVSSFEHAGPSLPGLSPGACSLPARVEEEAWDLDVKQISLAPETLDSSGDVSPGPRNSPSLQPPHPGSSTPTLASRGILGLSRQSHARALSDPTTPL

B1: LZTR1-FLAG (other, human, UniProt Q8N653 1-840, looked up)
chain: MAGPGSTGGQIGAAALAGGARSKVAPSVDFDHSCSDSVEYLTLNFGPFETVHRWRRLPPCDEFVGARRSKHTVVAYKDAIYVFGGDNGKTMLNDLLRFDVKDCSWCRAFTTGTPPAPRYHHSAVVYGSSMFVFGGYTGDIYSNSNLKNKNDLFEYKFATGQWTEWKIEGRLPVARSAHGATVYSDKLWIFAGYDGNARLNDMWTIGLQDRELTCWEEVAQSGEIPPSCCNFPVAVCRDKMFVFSGQSGAKITNNLFQFEFKDKTWTRIPTEHLLRGSPPPPQRRYGHTMVAFDRHLYVFGGAADNTLPNELHCYDVDFQTWEVVQPSSDSEVGGAEVPERACASEEVPTLTYEERVGFKKSRDVFGLDFGTTSAKQPTQPASELPSGRLFHAAAVISDAMYIFGGTVDNNIRSGEMYRFQFSCYPKCTLHEDYGRLWESRQFCDVEFVLGEKEECVQGHVAIVTARSRWLRRKITQARERLAQKLEQEAAPVPREAPGVAAGGARPPLLHVAIREAEARPFEVLMQFLYTDKIKYPRKGHVEDVLLIMDVYKLALSFQLCRLEQLCRQYIEASVDLQNVLVVCESAARLQLSQLKEHCLNFVVKESHFNQVIMMKEFERLSSPLIVEIVRRKQQPPPRTPLDQPVDIGTSLIQDMKAYLEGAGAEFCDITLLLDGHPRPAHKAILAARSSYFEAMFRSFMPEDGQVNISIGEMVPSRQAFESMLRYIYYGEVNMPPEDSLYLFAAPYYYGFYNNRLQAYCKQNLEMNVTVQNVLQILEAADKTQALDMKRHCLHIIVHQFTKVSKLPTLRSLSQQLLLDIIDSLASHISDKQCAELGADI
notes: Expressed in HEK 293T, HeLa or U87 cells; used as cell lysate; also called LZTR1 wild type-FLAG; LZTR1 WT; not shown: FLAG tag at the C-terminus
binds: AXL [1] | EGFR [2] | ARHGEF40 | UBE4B

B2: LZTR1 R810W-FLAG (other, human, UniProt Q8N653 1-840, looked up)
chain: B1 chain with R810W
notes: Stably expressed in U87 cells by lentivirus; also called LZTR1-FLAG-R810W; LZTR1 RW; not shown: FLAG tag
binds: AXL [3] | EGFR [4]
